Here are results for one molecule from paper PMC5533101 (Journal of Alzheimer's disease : JAD, 2004).

This assay addresses AβO(1-42), oligomeric non-fibrillar Aβ prepared from the peptide Aβ_(1-42) (UniProt P05067 672-713). Briefly: SPR.

B1: TR#2, recombinant TR segment containing the extracellular domain (ectodomain) (domain or fragment, UniProt Q9UIK5 56-301, looked up)
chain: CSGYDDRENDLFLCDTNTCKFDGECLRIGDTVTCVCQFKCNNDYVPVCGSNGESYQNECYLRQAACKQQSEILVVSEGSCATDAGSGSGDGVHEGSGETSQKETSTCDICQFGAECDEDAEDVWCVCNIDCSQTNFNPLCASDGKSYDNACQIKEASCQKQEKIEVMSLGRCQDNTTTTTKSEDGHYARTDYAENANKLEESAREHHIPCPEHYNGFCMHGKCEHSINMQEPSCRCDAGYTGQHCE
B1 yielded a dissociation constant Kd of 76.8 nM.
